Reference: publication PMC6017737, “Functional Impact of the N-terminal Arm of Proline Dehydrogenase from Thermus thermophilus” (Molecules : A Journal of Synthetic Chemistry and Natural …, 2018)
Residue numbers refer to the chain shown, from its start. Names and notes keep the numbering of the source.

B1: MBP-TtProDH ΔAB (MBP-TtProDH lacking helices αA and αB) (domain or fragment, Thermus thermophilus)
chain: KGLVRRYVAGETLEEALKAAEALEREGVHAILDLLGEMVRTEEEARAFQRGLLELVWALAGKPWPKYISLKLTQLGLDLSEDLALALLREVLREAEPRGVFVRLDMEDSPRVEATLRLYRALREEGFSQVGIVLQSYLYRTEKDLLDLLPYRPNLRLVKGAYREPKEVAFPDKRLIDAEYLHLGKLALKEGLYVAFATHDPRIIAELKRYTEAMGIPRSRFEFQFLYGVRPEEQRRLAREGYTVRAYVPYGRDWYPYLTRRIAERPENLLLVLRSLVSGLE
notes: Proline dehydrogenase (TtProDH), Thermus thermophilus, lacking helices αA and αB; C-terminal tail of TtProDH (part of helix α8), residues 288-309 as printed; not shown: MBP, N-terminal, kept
B2: MBP-TtProDH ΔAB V32D (domain or fragment, Thermus thermophilus)
chain: B1 chain with V4D
notes: Proline dehydrogenase (TtProDH), Thermus thermophilus, lacking helices αA and αB, with V32D in helix αC; C-terminal tail of TtProDH (part of helix α8), residues 288-309 as printed; lacking in a part of the preparation; The preparation is a mixture: partially intact and partially cleaved before R288 (two subunit masses, 73.0 and 75.5 kDa); Mainly dimers by SEC, tetramers and dimers by …
B3: MBP-TtProDH ΔAB Y35F (domain or fragment, Thermus thermophilus)
chain: B1 chain with Y7F
notes: Proline dehydrogenase (TtProDH), Thermus thermophilus, lacking helices αA and αB, with Y35F in helix αC; C-terminal tail of TtProDH (part of helix α8), residues 288-309 as printed; Identical subunits by denaturing MS; not shown: MBP, N-terminal, kept
B4: MBP-TtProDH ΔAB V36D (domain or fragment, Thermus thermophilus)
chain: B1 chain with V8D
notes: Proline dehydrogenase (TtProDH), Thermus thermophilus, lacking helices αA and αB, with V36D in helix αC; C-terminal tail of TtProDH (part of helix α8), residues 288-309 as printed; lacking in a part of the preparation; The preparation is a mixture: partially intact and partially cleaved before R288 (two subunit masses, 73.0 and 75.5 kDa); Mainly dimers by SEC, tetramers and dimers by …
B5: MBP-TtProDH ΔA (MBP-TtProDH lacking helix αA) (domain or fragment, Thermus thermophilus)
chain: QVERLIKHRAKGLVRRYVAGETLEEALKAAEALEREGVHAILDLLGEMVRTEEEARAFQRGLLELVWALAGKPWPKYISLKLTQLGLDLSEDLALALLREVLREAEPRGVFVRLDMEDSPRVEATLRLYRALREEGFSQVGIVLQSYLYRTEKDLLDLLPYRPNLRLVKGAYREPKEVAFPDKRLIDAEYLHLGKLALKEGLYVAFATHDPRIIAELKRYTEAMGIPRSRFEFQFLYGVRPEEQRRLAREGYTVRAYVPYGRDWYPYLTRRIAERPENLLLVLRSLVSGLE
notes: Proline dehydrogenase (TtProDH), Thermus thermophilus, lacking helix αA; C-terminal tail of TtProDH (part of helix α8), residues 288-309 as printed; Cloned with EcoRI and HindIII into pBAD-MBP; not shown: MBP, N-terminal, kept
B6: MBP-TtProDH ΔABC (MBP-TtProDH lacking helices αA, αB and αC) (domain or fragment, Thermus thermophilus, UniProt Q72IB8 38-287, looked up)
chain: GETLEEALKAAEALEREGVHAILDLLGEMVRTEEEARAFQRGLLELVWALAGKPWPKYISLKLTQLGLDLSEDLALALLREVLREAEPRGVFVRLDMEDSPRVEATLRLYRALREEGFSQVGIVLQSYLYRTEKDLLDLLPYRPNLRLVKGAYREPKEVAFPDKRLIDAEYLHLGKLALKEGLYVAFATHDPRIIAELKRYTEAMGIPRSRFEFQFLYGVRPEEQRRLAREGYTVRAYVPYGRDWYPYLT
notes: Proline dehydrogenase (TtProDH), Thermus thermophilus, lacking the whole N-terminal arm; PDB 5M42)'; the construct encodes up to residue 309, but the observed species is C-terminally truncated, cleaved before Arg288 (residues 288-309 removed); The difference of the predicted masses of ΔAB and ΔABC (75.5 against 74.4 kDa) fits a start at G38; not shown: MBP, N-terminal, kept
B7: MBP-TtProDH variant EE (MBP-TtProDH with Phe10 and Leu12 replaced by Glu) (enzyme, Thermus thermophilus)
chain: MNLDLAYRSEVEGVAGHPQVERLIKHRAKGLVRRYVAGETLEEALKAAEALEREGVHAILDLLGEMVRTEEEARAFQRGLLELVWALAGKPWPKYISLKLTQLGLDLSEDLALALLREVLREAEPRGVFVRLDMEDSPRVEATLRLYRALREEGFSQVGIVLQSYLYRTEKDLLDLLPYRPNLRLVKGAYREPKEVAFPDKRLIDAEYLHLGKLALKEGLYVAFATHDPRIIAELKRYTEAMGIPRSRFEFQFLYGVRPEEQRRLAREGYTVRAYVPYGRDWYPYLTRRIAERPENLLLVLRSLVSGLE
notes: Proline dehydrogenase (TtProDH), Thermus thermophilus, from its start to residue 287; C-terminal tail of TtProDH (part of helix α8), residues 288-309 as printed; The last residues of the printed tail (LE) may stem from the construct and not from the natural protein (my surmise); also called MBP-TtProDH EE; not shown: MBP, N-terminal, kept

Assays:
[1] = molecular target: T1, MBP-TtProDH ΔAB (Thermus thermophilus, UniProt Q72IB8, V32D, form not given)
T1 construct: gene TT_C1214
T1 sequence (Q72IB8 29-307 V32D, form open): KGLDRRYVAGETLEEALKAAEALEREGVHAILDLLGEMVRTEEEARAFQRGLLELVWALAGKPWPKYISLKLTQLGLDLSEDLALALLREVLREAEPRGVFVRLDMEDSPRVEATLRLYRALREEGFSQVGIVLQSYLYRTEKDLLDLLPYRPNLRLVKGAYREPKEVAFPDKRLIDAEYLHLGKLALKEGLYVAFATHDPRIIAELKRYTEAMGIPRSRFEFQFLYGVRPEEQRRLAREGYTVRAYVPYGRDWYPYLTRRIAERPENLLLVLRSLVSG

[2] = molecular target: T2, MBP-TtProDH ΔAB (Thermus thermophilus, UniProt Q72IB8); assay: residual proline:DCPIP activity after incubation; flavin absorption spectra; assay type: biochemical; conditions: covalent; suicide inhibitor, flavin N(5)-Lys99 adduct; 40 µM enzyme, pH 7.4, 25 °C
T2 construct: gene TT_C1214; lacks N-terminal helices αA and αB; start 29 (KGLVRRYVAG...) derived from printed primer and V32/Y35/V36 numbering; N-terminal MBP tag kept; E. coli TOP10; tetramer; FAD

[3] = molecular target: T3, MBP-TtProDH ΔAB (Thermus thermophilus, UniProt Q72IB8, V36D, form not given)
T3 construct: gene TT_C1214
T3 sequence (Q72IB8 29-307 V36D, form open): as the sequence (Q72IB8 29-307 V32D, form open) above, with D4V, V8D counted along it

[4] = molecular target: T4, MBP-TtProDH EE (Thermus thermophilus, UniProt Q72IB8, F10E/L12E, form not given); assay: residual proline:DCPIP activity after incubation; flavin absorption spectra; assay type: biochemical; conditions: covalent; suicide inhibitor, flavin N(5)-Lys99 adduct; 40 µM enzyme, pH 7.4, 25 °C
T4 construct: gene TT_C1214; full-length, Phe10 and Leu12 replaced by Glu; N-terminal MBP tag kept; E. coli TOP10; tetramer; FAD

[5] = molecular target: T5, MBP-TtProDH ΔA (Thermus thermophilus, UniProt Q72IB8); assay: as above; assay type: biochemical; conditions: covalent; suicide inhibitor, flavin N(5)-Lys99 adduct; 40 µM enzyme, pH 7.4, 25 °C
T5 construct: gene TT_C1214; lacks N-terminal helix αA; start 19 (QVERLIKHRAKG...) derived from printed primer; N-terminal MBP tag kept; E. coli TOP10; tetramer; FAD

[6] = molecular target: the molecule itself; assay: native MS; nanoflow ESI-MS of the native MBP-fused variants; source backing pressure 7.8 mbar, cone voltage 100-150 V
[7] = molecular target: the molecule itself; assay: SEC; analytical gel filtration on Superdex 200 of each MBP-fused variant alone, as described in ref. 19
[8] = molecular target: the molecule itself; assay: SEC; 20 µM EE and 20 µM ΔABC mixed in 50 mM sodium phosphate pH 7.4, incubated at room temperature overnight, then Superdex 200 gel filtration; SDS-PAGE of the fractions

| Molecule | stoichiometry N [6] | stoichiometry N [7] | also measured |
| --- | --- | --- | --- |
| C#CCNCC(=O)O [N-propargylglycine] | – | – | % residual activity after 90 min at 2.5 mM [1]: 30%; % residual activity after 90 min at 2.5 mM [2]: For ΔA and ΔAB the activity loss is even more pronounced; % residual activity after 90 min at 2.5 mM [3]: 63%; % residual activity after 90 min at 2.5 mM [4]: ~ 13%; % residual activity after 90 min at 2.5 mM [5]: For ΔA and ΔAB the activity loss is even more pronounced |
| B1 | 2 | 4 | – |
| B2 | 4 | 2 | – |
| B3 | – | 4 | – |
| B4 | 4 | 2 | – |
| B5 | 2 | 4 | – |
| B6 | 4 | 2 | – |
| B7 | – | – | stoichiometry N [8]: 4 |
